Key:
[1] = target: T1, CXCL9 (MIG) (Homo sapiens) (UniProt Q07325); experiment: ELONA; settings: n=2
T1 sequence: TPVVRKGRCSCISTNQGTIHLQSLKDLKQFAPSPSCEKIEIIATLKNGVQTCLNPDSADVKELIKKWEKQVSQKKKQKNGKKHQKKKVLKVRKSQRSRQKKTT

CXCL11 (Homo sapiens) = target: T2, CXCL11 (Homo sapiens) (UniProt O14625); experiment: ELONA; settings: n=2
T2 sequence: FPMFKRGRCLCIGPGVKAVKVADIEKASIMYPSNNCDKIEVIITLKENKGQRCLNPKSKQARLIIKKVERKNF

CXCL11 = target: T3, CXCL11 (Homo sapiens, UniProt O14625 O14625:22-94); experiment: ELONA; n=2; settings: tags: Cell guidance system; label: 5' biotin or Cy5; G4
T3 sequence: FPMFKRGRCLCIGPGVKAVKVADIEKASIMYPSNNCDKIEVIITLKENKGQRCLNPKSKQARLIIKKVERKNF
Method: (§1) 20 μl of 1 μg/ml protein in bicarbonate/carbonate buffer pH 9.6 was coated overnight at 4° C. on 96 well half area plates (Greiner Bio). After washing three times with 100 μL WB1 (PBS+0.05% Tween 20), wells were blocked with 1% BSA in PBS for 2 h at RT with slight agitation. […] Wells were washed once with 100 μL WB2 (138 mM NaCl, 5 mM KCl, 1.5 mM KH₂PO₄, 8.1 mM Na₂HPO₄, 170 mM urea, 7 mM ammonium acetate, 1 mM MgCl₂, 1 mM CaCl₂), pH 6.5).
(§2) DNA was diluted to respective concentration in SB1 and 20 μL is transferred onto the wells in duplicates (protein and BSA wells). After incubation of 30 min at RT and slight agitation, the wells were washed two times with 100 μL WB1 and are incubated with 20 μL of streptavidin-horseradish peroxidase (SA-HRP) solution (1:1000 in PBS, GE Healtcare). After 30 min incubation at RT the wells were washed again twice with 100 μL WB1. Finally, the complex was incubated with 1-Step ABTS (ThermoFisher) for 15-40 min at RT, slight agitation. Absorbance at 405 nm was read out with a Tecan Nanoquant plate reader. Binding of DNA to BSA background was subtracted from binding of DNA to protein sample.

[2] = target: sCD25 (soluble interleukin-2 receptor) (Homo sapiens, UniProt P01589 P01589:22-240); experiment: ELONA; DNA at 2x KD; settings: tags: Antikorper online; label: 5' biotin or Cy5; G4
Chain of sCD25 (soluble interleukin-2 receptor) (P01589 22-240, one chain of several): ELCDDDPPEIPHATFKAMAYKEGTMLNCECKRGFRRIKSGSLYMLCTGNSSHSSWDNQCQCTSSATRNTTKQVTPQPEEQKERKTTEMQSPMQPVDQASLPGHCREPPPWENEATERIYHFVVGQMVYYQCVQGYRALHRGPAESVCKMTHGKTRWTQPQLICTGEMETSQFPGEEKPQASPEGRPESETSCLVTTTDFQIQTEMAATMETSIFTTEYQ
Method: as §1, §2
(§3) Binding of aptamers of SEQ ID NO: 4 (G123) and SEQ ID NO: 5 (I29) to different proteins was determined using ELONA. […] The pro-inflammatory chemokines CXCL9, CXCL10, CXCL11, and CXCL1 were used, as well as soluble interleukin-2 receptor (sCD25), C-reactive protein (CRP), C—C motif chemokine ligand 17 (CCL17), C—C motif chemokine ligand 22 (CCL22), C—C motif chemokine ligand 3(CCL3) and human serum albumin (HAS).

[3] = target: HSA (human serum albumin) (Homo sapiens, UniProt P02768 P02768:25-609); experiment: ELONA; DNA at 2x KD; settings: tags: Sigma-Aldrich; label: 5' biotin or Cy5; G4
Chain of HSA (human serum albumin) (P02768 25-609, one chain of several): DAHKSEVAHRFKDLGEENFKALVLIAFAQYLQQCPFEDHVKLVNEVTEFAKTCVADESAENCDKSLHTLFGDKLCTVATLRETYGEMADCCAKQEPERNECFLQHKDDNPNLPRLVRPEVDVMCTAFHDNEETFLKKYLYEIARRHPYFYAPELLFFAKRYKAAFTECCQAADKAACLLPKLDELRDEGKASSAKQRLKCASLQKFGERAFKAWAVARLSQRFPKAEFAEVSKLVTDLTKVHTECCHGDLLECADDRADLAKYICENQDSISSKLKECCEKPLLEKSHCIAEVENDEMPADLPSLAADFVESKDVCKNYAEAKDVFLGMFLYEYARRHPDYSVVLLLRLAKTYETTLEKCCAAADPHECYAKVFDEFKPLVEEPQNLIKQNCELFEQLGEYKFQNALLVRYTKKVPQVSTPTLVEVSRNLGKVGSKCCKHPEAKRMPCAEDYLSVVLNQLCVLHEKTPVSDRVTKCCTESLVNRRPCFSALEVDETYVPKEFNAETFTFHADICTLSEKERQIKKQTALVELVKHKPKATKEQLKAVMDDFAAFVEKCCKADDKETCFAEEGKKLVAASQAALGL
Method: as §1, §2, §3

CCL17 = CCL17 (Homo sapiens, UniProt Q92583 Q92583:24-94); experiment: ELONA; DNA at 2x KD; settings: tags: BioLegend; label: 5' biotin or Cy5; G4
Chain of CCL17 (Q92583 24-94, one chain of several): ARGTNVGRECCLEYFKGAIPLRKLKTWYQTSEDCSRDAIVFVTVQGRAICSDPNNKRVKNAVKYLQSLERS
Method: as §1, §2, §3

CXCL10 = CXCL10 (Homo sapiens, UniProt P02778 P02778:22-98); experiment: ELONA; DNA at 2x KD; settings: tags: Cell guidance system; label: 5' biotin or Cy5; G4
Chain of CXCL10 (P02778 22-98, one chain of several): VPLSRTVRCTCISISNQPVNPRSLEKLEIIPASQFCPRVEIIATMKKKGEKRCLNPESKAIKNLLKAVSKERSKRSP
Method: as §1, §2, §3

CRP (C-reactive protein) = target: T4, CRP (C-reactive protein) (Homo sapiens, UniProt P02741 P02741:19-224); experiment: ELONA; DNA at 2x KD; settings: tags: BioRad; chain copies: 5; label: 5' biotin or Cy5; G4
T4 sequence: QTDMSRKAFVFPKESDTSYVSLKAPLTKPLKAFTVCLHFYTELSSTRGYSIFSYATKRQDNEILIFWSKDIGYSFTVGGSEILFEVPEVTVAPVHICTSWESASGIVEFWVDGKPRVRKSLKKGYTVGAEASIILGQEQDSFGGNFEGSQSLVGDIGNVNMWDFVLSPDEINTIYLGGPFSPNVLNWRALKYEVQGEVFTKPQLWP
Method: as §1, §2, §3

CCL3 = CCL3 (Homo sapiens, UniProt P10147 P10147:24-92); experiment: ELONA; DNA at 2x KD; settings: tags: Peprotech; label: 5' biotin or Cy5; G4
Chain of CCL3 (P10147 24-92, one chain of several): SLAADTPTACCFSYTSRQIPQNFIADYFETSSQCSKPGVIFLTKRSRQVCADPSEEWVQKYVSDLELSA
Method: as §1, §2, §3

CCL22 = target: T5, CCL22 (Homo sapiens, UniProt O00626 O00626:25-93); experiment: ELONA; DNA at 2x KD; settings: tags: BioLegend; label: 5' biotin or Cy5; G4
T5 sequence: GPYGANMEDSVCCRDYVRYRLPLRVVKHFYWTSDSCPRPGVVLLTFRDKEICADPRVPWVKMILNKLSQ
Method: as §1, §2, §3

CXCL1 = CXCL1 (Homo sapiens, UniProt P09341 P09341:35-107); experiment: ELONA; DNA at 2x KD; settings: tags: Cell guidance system; label: 5' biotin or Cy5; G4
Chain of CXCL1 (P09341 35-107, one chain of several): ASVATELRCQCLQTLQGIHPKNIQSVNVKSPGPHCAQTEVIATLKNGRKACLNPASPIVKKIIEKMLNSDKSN
Method: as §1, §2, §3

CXCL9 (MIG) [4] = target: T6, CXCL9 (MIG) (Homo sapiens, UniProt Q07325 Q07325:23-125); experiment: ELONA; n=2; settings: tags: Origene; immobilised on magnetic beads for flow cytometry; label: 5' biotin or Cy5; G4
T6 sequence: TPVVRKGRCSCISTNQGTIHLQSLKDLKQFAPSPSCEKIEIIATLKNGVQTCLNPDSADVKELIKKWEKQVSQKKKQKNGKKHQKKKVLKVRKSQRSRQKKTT
Method: as §1
as §2, with “Binding of DNA to BSA background was subtracted from binding of DNA to protein sample.” left out
In parallel, the influence of indole (In) modification and azide without modification (E) on the affinity of aptamer SEQ ID NO: 4 (G123) was determined using ELONA and compared to the affinity of unmodified DNA (DNA). […] In the table, “+” represents successful binding, while “−” means no detection of binding, “n.d.” denotes not determined.

CXCL9 (MIG) [5] = target: T6, CXCL9 (MIG); experiment: flow; scrambled non-binding control; settings: tags: Origene; immobilised on magnetic beads for flow cytometry; label: 5' Cy5
Method: The binding of indole-modified aptamer of SEQ ID NO: 5 (I29 In), unmodified aptamer of SEQ ID NO: 6 (G123 DNA), and indole-modified aptamer of SEQ ID NO: 4 (G123 In) to pro-inflammatory chemokine CXCL9 was determined in competition assay. 100 nM Cy-5 labelled DNA was incubated simultaneous with 1 μM unlabelled DNA and thus competed for binding. After incubation the remaining Cy5 labelled DNA on CXCL9-magnetic beads was analysed with flow cytometry as described above. As control, Cy5-labeled DNA without competitor was analysed and was used to normalize data.
Binding of Cy5 labelled scrambled sequence is used as non-binding control. (n=2, mean±SD).

[6] = indole-clicked EdU at all N (28,44,47,49,50) [28,44,47,49,50 (indole-clicked EdU)]
[7] = indole-clicked EdU at all N [31,45,49,53 (indole-clicked EdU)]

Q: With “CACGACGCAAGGGACCACAGGAGAGACTCACGGGCGGGCGACCTACTGTTCAGCCCAGACCGACAGCACGACACCGCAGAGGCA [I29 In]” as the molecule, how does the Kd [1, 6] read?
A: 12 nM

Q: And the Kd (CXCL11 (Homo sapiens); [6])?
A: 17 nM

Q: “CACGACGCAAGGGACCACAGGAGAGACTCACGGGCGGGCGACCTACTGTTCAGCCCAGACCGACAGCACGACACCGCAGAGGCA [I29 Naph]” was tested. Which Kd ([1]; naphthalene-clicked EdU at all N [28,44,47,49,50 (naphthalene-clicked EdU)]) did it give?
A: 21 nM

Q: Which results are given for “CACGACGCAAGGGACCACAGGGAGGGAGGGTGGGCAAAGGGCCCTAAGTCCGTAACAAAAACACAGCACGACACCGCAGAGGCA [G123 In]”?
A: Kd [1, 7]: 39 nM; Kd (CXCL11 (Homo sapiens); [7]): 73 nM

Q: “CACGACGCAAGGGACCACAGGAGAGACTCACGGGCGGGCGACCTACTGTTCAGCCCAGACCGACAGCACGACACCGCAGAGGCA [I29 Phe]” was tested. Which Kd ([1]; phenol-clicked EdU at all N [28,44,47,49,50 (phenol-clicked EdU)]) did it give?
A: 177 nM

Q: Which Kd ([1]; benzofurane-clicked EdU at all N [28,44,47,49,50 (benzofurane-clicked EdU)]) does the source give for “CACGACGCAAGGGACCACAGGAGAGACTCACGGGCGGGCGACCTACTGTTCAGCCCAGACCGACAGCACGACACCGCAGAGGCA [I29 BnFu]” here?
A: 17 nM

B1: G123 DNA (ssDNA)
DNA: CACGACGCAAGGGACCACAGGGAGGGAGGGTGGGCAAAGGGCCCTAAGTCCGTAACAAAAACACAGCACGACACCGCAGAGGCA
Q: Which results are given for B1?
A: Kd (CXCL11): 249 nM; binding result [2]: no binding; binding result [3]: no binding; binding result (CCL17): no binding; binding result (CXCL10): no binding; binding result (CRP (C-reactive protein)): no binding; binding result (CCL3): no binding; binding result (CCL22): no binding; binding result (CXCL1): no binding; Kd (CXCL9 (MIG) [4]): 92 nM

B2: G123.sc (ssDNA)
DNA: CACGACGCAAGGGACCACAGGAGGAGAGTAGGCGATACACGACGTAGCGCAGATAGGACCAAGCAGCACGACACCGCAGAGGCA
modifications: N = T or EdU [29,36,45,54 (T or EdU)]
Q: Does B2 bind (CXCL9 (MIG) [5])?
A: no binding

Source: US20230358760, “APTAMERS THAT TARGET CXCL9” (RHEINISCHE FRIEDRICH-WILHELMS-UNIVERSITÄt BONN, published 2023)
